Assay results from paper PMC11246235.

Target: T1, CST (Ctc1/Stn1/Ten1), His6-MBP tag of Ctc1 cleaved off (human), Q2NKJ3
T1 chain 1: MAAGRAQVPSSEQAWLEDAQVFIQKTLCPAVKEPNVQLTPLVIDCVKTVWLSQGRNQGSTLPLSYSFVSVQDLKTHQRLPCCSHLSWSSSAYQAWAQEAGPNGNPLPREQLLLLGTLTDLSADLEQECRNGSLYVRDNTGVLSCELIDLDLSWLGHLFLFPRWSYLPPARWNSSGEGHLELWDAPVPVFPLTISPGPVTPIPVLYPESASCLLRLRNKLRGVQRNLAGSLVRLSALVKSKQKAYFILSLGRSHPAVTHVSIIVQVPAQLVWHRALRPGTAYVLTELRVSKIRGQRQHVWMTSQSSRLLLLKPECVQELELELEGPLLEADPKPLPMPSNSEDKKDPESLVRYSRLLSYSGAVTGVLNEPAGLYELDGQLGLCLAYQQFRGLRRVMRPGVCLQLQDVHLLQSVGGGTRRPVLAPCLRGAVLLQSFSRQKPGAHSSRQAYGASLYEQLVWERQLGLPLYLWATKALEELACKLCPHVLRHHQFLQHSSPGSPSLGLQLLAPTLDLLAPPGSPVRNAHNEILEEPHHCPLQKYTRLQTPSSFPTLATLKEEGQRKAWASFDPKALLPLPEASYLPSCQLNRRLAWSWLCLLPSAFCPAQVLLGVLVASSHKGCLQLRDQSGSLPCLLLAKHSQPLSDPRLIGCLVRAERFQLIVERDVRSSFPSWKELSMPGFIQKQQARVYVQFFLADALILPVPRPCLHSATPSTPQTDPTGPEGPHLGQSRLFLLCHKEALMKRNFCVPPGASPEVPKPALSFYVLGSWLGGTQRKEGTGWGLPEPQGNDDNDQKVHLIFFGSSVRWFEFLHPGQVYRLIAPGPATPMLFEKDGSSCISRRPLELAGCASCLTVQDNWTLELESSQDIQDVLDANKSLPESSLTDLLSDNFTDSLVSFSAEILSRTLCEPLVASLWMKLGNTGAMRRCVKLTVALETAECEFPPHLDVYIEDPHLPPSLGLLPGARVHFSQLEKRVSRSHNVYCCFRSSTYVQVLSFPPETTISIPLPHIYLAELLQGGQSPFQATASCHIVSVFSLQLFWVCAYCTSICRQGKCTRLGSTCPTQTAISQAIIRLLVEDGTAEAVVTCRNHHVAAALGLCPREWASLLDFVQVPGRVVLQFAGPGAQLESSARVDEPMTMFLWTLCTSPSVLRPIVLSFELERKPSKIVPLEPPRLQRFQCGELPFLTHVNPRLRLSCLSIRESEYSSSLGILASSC
T1 chain 2: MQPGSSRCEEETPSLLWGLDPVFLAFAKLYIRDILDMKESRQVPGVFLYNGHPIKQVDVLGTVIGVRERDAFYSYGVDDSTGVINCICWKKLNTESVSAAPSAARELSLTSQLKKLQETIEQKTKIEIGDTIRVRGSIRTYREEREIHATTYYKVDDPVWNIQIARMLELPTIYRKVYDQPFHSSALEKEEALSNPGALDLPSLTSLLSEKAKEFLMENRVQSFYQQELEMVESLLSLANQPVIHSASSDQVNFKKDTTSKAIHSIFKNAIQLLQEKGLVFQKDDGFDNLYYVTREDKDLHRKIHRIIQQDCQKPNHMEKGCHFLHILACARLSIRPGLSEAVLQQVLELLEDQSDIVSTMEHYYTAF
T1 chain 3: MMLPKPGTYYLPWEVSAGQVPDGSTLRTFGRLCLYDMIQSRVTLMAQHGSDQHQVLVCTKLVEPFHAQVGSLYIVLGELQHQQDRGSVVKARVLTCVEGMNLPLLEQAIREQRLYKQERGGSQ
Test: negative-stain EM
Settings: remark: other sources report otherwise

B1: CST (Ctc1/Stn1/Ten1), His6-MBP tag of Ctc1 cleaved off, Q2NKJ3 1-1217; Q9H668 1-368; Q86WV5 1-123 (complex)
chain 1: T1 chain 1
chain 2: T1 chain 2
chain 3: T1 chain 3
- stoichiometry N: 2
